The results in this text go back to patent US20200079826.

Holding throughout (assay): cell_activity
In one data set the test system is ZFN 56529 (synthetic). Particulars: pair with 56526; K562 deltaF508 line.
A further data set has as its system ZFN 56527 (synthetic). To be noted: pair with 56526; K562 deltaF508 line.
The next data set has as its system ZFN 56127 (synthetic). To be noted: pair with 56126; K562.
The test system of a further data set is ZFN 56254 (synthetic). Particulars: pair with 56255; K562.
The subject of the next data set is ZFN 56690 (synthetic). To be noted: pair with 56691; Neuro2a.
The next data set concerns ZFN 56316 (synthetic). Particulars: pair with 56317; K562.
In a further data set the test system is ZFN 56643 (synthetic). Particulars: pair with 56644; Neuro2a.
The test system of a further data set is ZFN 56526 (synthetic). Particulars: 16.8% with 56527; K562 deltaF508 line.
The next data set has as its system ZFN 56444 (synthetic). To be noted: pair with 56445; K562; F6 printed QSGMLAR but cited as SEQ 5 (QSGNLAR).
In a further data set the test system is ZFN 56126 (synthetic). To be noted: pair with 56127; K562.
In a further data set the test system is ZFN 56691 (synthetic). Particulars: pair with 56690; Neuro2a; Table 2 site differs slightly from listing.
For another data set, the system named is ZFN 56445 (synthetic). To be noted: pair with 56444; K562.
A further data set concerns ZFN 56255 (synthetic). Particulars: pair with 56254; K562.
The test system of a further data set is ZFN 56644 (synthetic). Particulars: pair with 56643; Neuro2a.
The test system of a further data set is ZFN 56317 (synthetic). Particulars: pair with 56316; K562.

For “ATGATGAATATAGATACAGAAGCGTCAT (double strand) [CFTR dF508 56529/56527 site]”, the activity was 19.6 % indels in the data set on ZFN 56529 (synthetic) and 16.8 % indels in the data set on ZFN 56527 (synthetic).

“ATGGAAACTGAGCTGCAGGTGTGTGATT (double strand) [CFTR int7 56127 site]” showed an activity with ZFN 56127 (synthetic) of 55.4 % indels.

“ATTAAGTCCACGCATACTGAAGTCTTGG (double strand) [CFTR int8 56254 site]”: the activity in the data set with ZFN 56254 (synthetic) was 50.1 % indels.

The sequence “CCCTGGGTTATGCTGTGATCTTGTGTCA (double strand) [Cftr int1 56690 site]” showed an activity with ZFN 56690 (synthetic) of 67.2 % indels.

In turn, “GAAAAGACTATTGAGGGACTGGTGTAGA (double strand) [CFTR int1 56316 site]” had an activity in the data set on ZFN 56316 (synthetic) of 52 % indels.

For the sequence “GCAATGCTTCATGGGAAAGTACAGTGGC (double strand) [Cftr int8 56643 site]”, the activity with ZFN 56643 (synthetic) was 49.2 % indels.

For “GGAAACACCAATGATATTTTCTTTAATG (double strand) [CFTR dF508 56526 site]”, the activity with ZFN 56526 (synthetic) came out at 19.6 % indels.

“GGGAAGAAGCAGCTGAAATGTGTAGGTG (double strand) [CFTR int3 56444 site]”: the activity in the data set with ZFN 56444 (synthetic) worked out at 32.7 % indels.

In the case of “GTACACTGGACTCAGCAGCCTGAATTCC (double strand) [CFTR int7 56126 site]”, the activity in the data set with ZFN 56126 (synthetic) came to 55.4 % indels.

As to “GTCAACAGGTGTACTGCAGGCATGCTAG (double strand) [Cftr int1 56691 site]”, in the data set with ZFN 56691 (synthetic), the activity was 67.2 % indels.

In the data set on ZFN 56445 (synthetic), “GTGAGAAGGCAGAGAGAAGAATATTTAT (double strand) [CFTR int3 56445 site]” showed an activity of 32.7 % indels.

Sequence “TAGGGAAGGTAGGAGCATAAGGAAGAAT (double strand) [CFTR int8 56255 site]” returned an activity in the data set with ZFN 56255 (synthetic) of 50.1 % indels.

As to “TGGAAGCTGAAGTTCTTGGAACATAGCA (double strand) [Cftr int8 56644 site]”, the activity with ZFN 56644 (synthetic) worked out at 49.2 % indels.

Sequence “TTTATCCTTTTGCTGACCATGTTTTGTT (double strand) [CFTR int1 56317 site]” showed an activity in the data set on ZFN 56317 (synthetic) of 52 % indels.
